Test results taken from patent US20190134161A1 (PEGBIO, published 2019).

B1: PB-740 (peptide)
peptide: HSQGTFTSDYSKYLDSRRAQDFVQWLMNTC
B2: PB-721 (peptide)
peptide: B1 peptide
modifications: not fully specified; mPEG-23 KD-ppMAL conjugated to PB-740 (cysteine added after the 29th amino acid)

Biological target: glucagon receptor
Assay: cell-based or functional assay

Binder	In Vitro EC50 (cAMP release, HEK293 cells stably expressing the glucagon receptor, cAMP ELISA)
B1	1.45 nM
B2	6.94 nM
